According to patent publication US9561272B2, “Compositions and methods for modulating immune responses” (The University of Queensland, priority 2006, dated 2017):

Columns and labels:
[1] = Entrapment efficiency of NF-κB inhibitor and antigen in liposomes (% EE); type: physicochemical; settings: EPC liposomes; for entrapment efficiency of NF-κB inhibitor in liposomes: after removal of non-entrapped drug; for entrapment efficiency of protein antigen in liposomes: freeze-thawing cycle repeated 5 times
Procedure: Entrapment efficiency of protein following this process was typically at least 20%, approximately 60% for Bay and greater than 80% for both Quecertin and Curcumin. Empty, NF-κB inhibitor or protein only liposomes were prepared as above, by omitting the relevant bioactive/s. Following removal of non-entrapped NF-κB inhibitor and antigen, the amount of NF-κB inhibitor and antigen entrapped in liposome could be quantified by assay method. The entrapment efficiency was expressed as: [formula] […] The resulting solution was then kept at −20° C. After 30 minutes, the sample was centrifuged at maximum speed at 4° C. for 10 minutes (EBA 12R centrifuge, Hettich Zentrifugen, Germany) to remove precipitated protein. The concentration of Bay 11-7082 in the resulting supernatant was then assayed and calculated based on the established calibration (with consideration to the dilutions performed) (data not shown). […] The concentration of either quercetin or curcumin in the resulting solution was then assayed and calculated based on the established calibration curves (with consideration to the dilutions performed). […] The quantity of model antigen entrapped in liposomes was determined by a standard bicinchoninic acid (BCA) protein assay with slight modification. Briefly, liposomes loaded with OVA or mBSA were lysed using ethanol or iso-propanol at 20-fold dilution, respectively, and then stored at −20° C. After 30 minutes, the sample was centrifuged at maximum speed at 4° C. for 10 minutes (EBA 12R centrifuge, Hettich Zentrifugen, Germany). The supernatant containing lipid and NF-κB inhibitor was discarded. The protein pellet was then placed in an Alpha 2-4 LD Freeze-drier (Alpha 2-4 LD Freeze-drier, Martin Christ, Germany) to remove remaining solvent. One hundred μL of 2.5% w/v sodium dodecyl sulfate (SDS) solution (for OVA) or water (for mBSA) was added to redissolve the protein pellet. SDS was required for aiding to re-dissolve OVA pellet. The resulting protein solution was mixed with 2 mL of BCA solution (Pierce Biotechnology Inc., USA) and incubated at 37° C. for 30 minutes. After incubation, the absorbance of the solution was measured using a Cary 50 UV-VIS spectrophotometer (Varian, Calif., USA) at a wavelength of 562 nm. The concentration of OVA and mBSA was calculated on the basis of calibration curves established using a series of known concentrations of either OVA or mBSA solution ranging from 0.25 mg/mL to 2 mg/mL.

[2] = cited from earlier work
NF-κB = settings: Table 3, miscellaneous inhibitors of NF-κB; step of NF-κB function inhibited, per the cited reference; cited from earlier work
[3] = previous experiment, thin film method without freeze-thawing, same EPC concentration (Copland 2003); cited from earlier work

Molecule | entrapment efficiency of protein antigen in liposomes [1] | Effect or point of inhibition (NF-κB) | further results
Cc1ccc(S(=O)(=O)/C=C/C#N)cc1 [Bay 11-7082, E3((4-methylphenyl)-sulfonyl)-2-propenenitrile, reference compound] |  |  | entrapment efficiency of NF-κB inhibitor in liposomes [1]: around 60%; entrapment efficiency of NF-κB inhibitor in liposomes ([1]; listed as Bay): approximately 60%; log P [2]: 1.63
methylated bovine serum albumin [mBSA] | approximately 25% |  | 
NRF (NF-κB repression factor) (protein, UniProt O15226 1-690, looked up) NF-kappa-B-repressing factor: MEKILQMAEGIDIGEMPSYDLVLSKPSKGQKRHLSTCDGQNPPKKQAGSKFHARPRFEPVHFVASSSKDERQEDPYGPQTKEVNEQTHFASMPRDIYQDYTQDSFSIQDGNSQYCDSSGFILTKDQPVTANMYFDSGNPAPSTTSQQANSQSTPEPSPSQTFPESVVAEKQYFIEKLTATIWKNLSNPEMTSGSDKINYTYMLTRCIQACKTNPEYIYAPLKEIPPADIPKNKKLLTDGYACEVRCQNIYLTTGYAGSKNGSRDRATELAVKLLQKRIEVRVVRRKFKHTFGEDLVVCQIGMSSYEFPPALKPPEDLVVLGKDASGQPIFNASAKHWTNFVITENANDAIGILNNSASFNKMSIEYKYEMMPNRTWRCRVFLQDHCLAEGYGTKKTSKHAAADEALKILQKTQPTYPSVKSSQCHTGSSPRGSGKKKDIKDLVVYENSSNPVCTLNDTAQFNRMTVEYVYERMTGLRWKCKVILESEVIAEAVGVKKTVKYEAAGEAVKTLKKTQPTVINNLKKGAVEDVISRNEIQGRSAEEAYKQQIKEDNIGNQLLRKMGWTGGGLGKSGEGIREPISVKEQHKREGLGLDVERVNKIAKRDIEQIIRNYARSESHTDLTFSRELTNDERKQIHQIAQKYGLKSKSHGVGHDRYLVVGRKRRKEDLLDQLKQEGQVGHYELVMPQAN |  | Transactivation | 
Uteroglobin (protein, UniProt P11684 22-91, looked up) Uteroglobin: EICPSFQRVIETLLMDTPSSYEAAMELFSPDQDMREAGAQLKKLVDTLPQKPRESIIKLMEKIAQSSLCN |  | DNA binding | 
ovalbumin (protein, UniProt P01012 2-386, looked up, model antigen) Ovalbumin: GSIGAASMEFCFDVFKELKVHHANENIFYCPIAIMSALAMVYLGAKDSTRTQINKVVRFDKLPGFGDSIEAQCGTSVNVHSSLRDILNQITKPNDVYSFSLASRLYAEERYPILPEYLQCVKELYRGGLEPINFQTAADQARELINSWVESQTNGIIRNVLQPSSVDSQTAMVLVNAIVFKGLWEKAFKDEDTQAMPFRVTEQESKPVQMMYQIGLFRVASMASEKMKILELPFASGTMSMLVLLPDEVSGLEQLESIINFEKLTEWTSSNVMEERKIKVYLPRMKMEEKYNLTSVLMAMGITDVFSSSANLSGISSAESLKISQAVHAAHAEINEAGREVVGSAEAGVDAASVSEEFRADHPFLFCIKHIATNAVLFFGRCVSP | ~20% |  | 
FITC-OVA: fluorescein isothiocyanate conjugated to ovalbumin (conjugate, UniProt P01012 2-386, looked up, FITC label, fluorescein isothiocyanate conjugated to ovalbumin) Ovalbumin: GSIGAASMEFCFDVFKELKVHHANENIFYCPIAIMSALAMVYLGAKDSTRTQINKVVRFDKLPGFGDSIEAQCGTSVNVHSSLRDILNQITKPNDVYSFSLASRLYAEERYPILPEYLQCVKELYRGGLEPINFQTAADQARELINSWVESQTNGIIRNVLQPSSVDSQTAMVLVNAIVFKGLWEKAFKDEDTQAMPFRVTEQESKPVQMMYQIGLFRVASMASEKMKILELPFASGTMSMLVLLPDEVSGLEQLESIINFEKLTEWTSSNVMEERKIKVYLPRMKMEEKYNLTSVLMAMGITDVFSSSANLSGISSAESLKISQAVHAAHAEINEAGREVVGSAEAGVDAASVSEEFRADHPFLFCIKHIATNAVLFFGRCVSP |  |  | entrapment efficiency of FITC-OVA in liposomes [3]: less than 5%
